Data on 2 molecules can be found in paper PMC11931385, “Structural and functional analysis of cancer-associated missense variants in the retinoblastoma protein pocket domain” (The Journal of Biological Chemistry, 2025).

Where a chain is given by its changes, count along the chain named. In names and notes the source's numbering stands. No end group written: not given here. TMR = tetramethyl rhodamine dye

Holding throughout (details): both partners purified
For one test, the target named is T1, Rb^P R611S (human, UniProt P06400 380-788, R611S).
T1 construct: also called variant 38
T1 sequence (looked up): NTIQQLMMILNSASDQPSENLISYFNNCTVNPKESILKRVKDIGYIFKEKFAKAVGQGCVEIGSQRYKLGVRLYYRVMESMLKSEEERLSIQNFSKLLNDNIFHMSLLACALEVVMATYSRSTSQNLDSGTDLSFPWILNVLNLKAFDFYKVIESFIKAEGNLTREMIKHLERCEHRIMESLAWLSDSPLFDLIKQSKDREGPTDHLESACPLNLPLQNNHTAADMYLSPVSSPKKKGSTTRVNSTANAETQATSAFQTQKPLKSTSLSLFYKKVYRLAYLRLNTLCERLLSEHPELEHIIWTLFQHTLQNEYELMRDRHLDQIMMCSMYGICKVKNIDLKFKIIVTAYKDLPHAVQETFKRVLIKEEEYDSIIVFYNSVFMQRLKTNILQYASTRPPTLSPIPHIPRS
Description: fluorescence polarisation; 37 °C, after the 25 °C reading ramped over 7 min to 37 °C and 2 min incubation; unlabeled Rb^P against 1.5 nM TMR-E2F1^TD or 7.5 nM TMR-E7^LxCxE; 25 mM Tris pH 8.0, 200 mM NaCl, 1 mM DTT, 0.1% Tween-20; apparent Kd. In general terms: In fluorescence polarisation assays a small probe gives low polarisation when free and higher when bound to something large.

For another test, the target named is T2, Rb^P D604G (human, UniProt P06400 380-788, D604G).
T2 construct: also called variant 36
T2 sequence (looked up): T1 sequence (looked up) with D225G, S232R
Described as above.

The next test concerns the target T3, Rb^P H555Y (human, UniProt P06400 380-788, H555Y).
T3 construct: also called variant 29
T3 sequence (looked up): T1 sequence (looked up) with H176Y, S232R
Described as above.

The target in a further test is T4, Rb^P P595L (human, UniProt P06400 380-788, P595L).
T4 construct: also called variant 35
T4 sequence (looked up): T1 sequence (looked up) with P216L, S232R
The test is described as above.

Another test has as its target T5, Rb^P M695I (human, UniProt P06400 380-788, M695I).
T5 construct: also called variant 61
T5 sequence (looked up): T1 sequence (looked up) with S232R, M316I
Description: fluorescence polarisation; 25 °C; unlabeled Rb^P titrated against 1.5 nM TMR-E2F1^TD or 7.5 nM TMR-E7^LxCxE; 25 mM Tris pH 8.0, 200 mM NaCl, 1 mM DTT, 0.1% Tween-20; 2 min incubation; quadratic fit; apparent Kd for the variants, Kd for WT.

B1: TMR-E2F1^TD, peptide of the E2F1 transactivation domain (peptide)
peptide: {TMR}-GEGIRDLFDCDFGDLTPLD
notes: also called E2F^TD; source: synthetic peptide, bought: GenScript
Take B1: the Kd in the test with Rb^P R611S was 30 nM; in the test with Rb^P D604G, 50 nM; in the test with Rb^P H555Y, 366 nM; with Rb^P P595L it was 83 nM; with Rb^P M695I it was 43 nM.

B2: TMR-E7^LxCxE, LxCxE peptide of the E7 oncoprotein from HPV (peptide)
peptide: DLYCYEQLN
modifications: also: TMR label, position not given here
notes: source: synthetic peptide, bought: GenScript
Consider B2, for which the Kd with Rb^P R611S was 15 nM; in the test with Rb^P D604G it was 26 nM; with Rb^P H555Y, 32 nM; with Rb^P P595L, 32 nM; with Rb^P M695I, 11 nM.
